The record followed here is a protein production outcome set (Wang et al. 2014).
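Further: failed if final PepcDB status was selected cloned or expressed and not failed if soluble or beyond.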

The series is described as follows: label from the status in PepcDB records.
Consider “MKMKLLILAVLPFLTPINMNSQEEKASWVQYVNPLIGTEVWQSGVAVAGHEDPSGYTFPGVTEPFGMTEWTAHTLESKHAGTLHHRVPYWYKHNYISGFMGTHYPSGAVMFDYGAVELMPVVGQLKCRPEERSSSFTHITEKSKPHFYEVMLDDYQVKAQLSATKTSAILQFTYPQSDSAYVVVDAMPSMFTAGAPGYIHIDPVRKEISGKSIQSARGYRETGYFVVRFDKDFDSFGTFNLNNDYPEVIEEKYLFTQKEGKWVNGLKGIYTQDSKGVGHLRSEKIDPVIDFDWDWYKPADDFSFNDYQVTWSGKLKAPSTGEYTLGIQADDGARLYINGELLIDDWKSHSFSYQPTQKKISLEAGKMYDIKLEYYQHEWSSRIKLSWIRPDKKSSTSLLTGNRHLESSTKIGGYIRFKTGKNEVIKAIVGTSFISVEQARINLEREIGAKSMETISAQTEALWNKELSVIDLPGATEQDKIVFYTALYHSFLLPRSLSEDGKYRSPFDGKVHKGISFTDYSIWDTFRATHPLFVLLKPDFAGDLITGLLHAYDEGGWLPKWPNPGYTNCMMGTHSDAIIADAYVKGVRNFDVEKAKKAVLKNAYEKGNHIAWGRLGIMDYERLGYVPVDKYGESVARTMEFAYDDYCLSRFFAEKGEPDLSDKLGKRSKNFRNVLDKETKMVRARKADGSWSNPEDYDISVWSGFNPKGVYNYKKNYTLFVPHDVPELIRFLGGTDSLAVFMDELFDKDIYYVGDEFVMHAPYMYNLCKRPWMTQKRIYDIVNKYYLPTPSGLPGNDDCGQLSSWYIFSAMGFYPMCPASIEYQLGVPCLPGFVLHLPQNRTFTIKTKNFGKGNCYVRAVYLNGKPHRSSVITHSDIINGGEILFELTDKPAYNWFQ”, for which the protein production entry is on record as “failed”.

As to “MSKKVIADVFLEVANAIESGEFGKKVKIGVTTLGSEHGVENMVNGAQLAKSNLFDIVLIGPKVETDLEVVEVNDEKEMHAKMEELLDSGYIDACVTMHYNFPIGVSTVGRVITPAKGKEMILATTTGTSATNRIEAMVRNAIYGIATAKSMGNKCPKVGILNVDGARQVEKCLKELKDNGYDMEFADSIRADGGCVMRGNDLLVGAPDVMVTDTLSGNIFMKVFSSYTTGGDYEAQGFGYGPGVGEDYDRKVLIVSRASGSPVVANALKYAYDVVKGDISNVARNEFAKVKKAKFDDIISSLTKKEVKAEKVEVKMPDKEIVTRQIAGVDIMDLEDAVSELWKNGIYAESGMGCTGPIVLVNEAKGDLAVETLVKAGYTAK”, the protein production result was “failed”. On to “SEILRKFKILGRSKSPIFAFTVTAGLALTAVTGSATAVSIFRDSPSNKIATAVEGVVRSSRAIYSITLTVADYKYTLRRLPADSDEYLQRLTEVHSRSAKRILKLCESNKGFYVKAGQFVATLKLVPKEYSLALSSLQDKAVPCNFQEIKQVLTSNLGQNLTEIYLSFDEEPIAAASIAQVHHAVLKNHQEVAVKVQYPGLKQNMMLDTMIMSFLSKSVAKIFPEYRFDWLVYEFVKSISQELDFLQEAKNSERIAKNFKHNKMITIPTVFSEFTTTQVLTMQFCKGFKVDDVESLKRTNVSPEKVAKVLVEVFAEMIFVHGFIHGDPHPGNILVSPEGQNGFSLVLLDHGNCKTLDEAFRRDFCRLWEALILLDSNKIQELGKQFGVGKYAKFFPVIFTGRTSESGLIRSITLKLGAPQRVRLLAYAKYAVYGLGYKPTSEPDFVEKSVISRSVMLMSYLRLRLILELMELFQGMKKLKHTIYGFYGQLVGGITNSVKRITCSV”, for which the protein production entry is recorded as “failed”. Take “MGSFHRRTFSYDKLPNEPIRLSVLKLDGSSFDVYVLTSATVGDLKVAIETAFSHVPKKGPSKISWSHVWGHFCLCFGGQKLITDTDCIGNYGMKDGDEVRFKNHVSGNAVLSKGYSRKSKQKNLERVLPKDGDEVLNRIEEIDDSWDDLERGGLVMYKDDDMETSSNESNRSCLSTVHGCCFAFGLKELLGFGNDRAYYSLRDTWRDD”: the protein production entry is listed as “failed”. As for “MRCLRHARRQSQGVRGGRGMARADRGDGDGDAEAEDGRHSTASDARLTQLLRTDTATAYPALRELRTRHRPAVLGYARLCTVDDAAARRLTAQAFALAARDTARGSDPRGPWRHQLLLLAGRVAASWAADERAARLDPDLLAHLGAAGSRAQVPPLLAAFQSLPSRVQGVVWYAVVEGEPDDRTADFVGLTREDVTYGTEPAFQSLRQSCLTTRLAASDDPRCQDFRRLIEESVRPDNPRYSADLHAHMVHCVYCATAYDELSALRDDPRTALAAGLLAWGGAAYVTGGAVTRRAVAGGPGPSGPGPGDPGPGPAPGWWPSRRFVLASTALGVALIPFLAYLLVSGGPEPERAANAVATPSRPPAVTVTATVSATPSPSPSHTAGKSPKPSRSPSASKTTRPPSPKPSPKPPAPHPPNGSFAQVVNADSGLCLDIRDGVMDLGTDVVTAPCTSSRTQRWRVDTARGVLQSSEDPDFCLDSRGSTDRGVGIWECGAVYGRNGRNLRFTVDAQGVIRPAVAPDHAVTPYGDALFLVPAEGRAAQRWRAGAA”, the protein production result is “failed”. Consider “MASFPPRVNEKEIVRSRTIGELLAPAAPFDKKCGGENWTVAFAPDGSYFAWSQGYRIVKLVPWSQCLKNFLLHGSKNVTNSSCLKLARQNSNGGQKNKPREHIIDCGDIVWSLAFGSSVPEKQSRCVNIEWHRFRFGQDQLLLATGLNNGRIKIWDVYTGKLLLNLVDHIEVVRDLTFAPDGSLLLVSASRDKTLRVWDLKDDGNMVKVLRGHQNWVYSCAFSPDCSMLCSVGASKAVFLWNMDKYTMIRRLEGHHHDVVACDFSPDGALLATASYDTRVYVWDPHIGDTLMEFGHLFPPPTPIFAGGANDRWVRAVSFSHDGLHVASLADDKMVRFWSIGDDCPVQVAPLSNGLCCAFSTDGSVLAAGTHDGSVYFWATPRQVSSLQHLCRMSIRRVMPTQEVQKLPVPSKMLEFLSYRV”, for which the protein production result is “failed”.

For the sequence “MTTIDIIILIIIGAGVVAGFMKGFIRQLASILGLVVGLLAAKALYATLAEKLCPAVTDSMTVAQVLAFIVIWIAVPLIFTLVASLLTKAMEAISLGWLNRWLGSGLGALKFLLLTSLVICVIEFIDSDNKLISATKKSESLLYYPMETFAGIFFPAAKNITQQYILDNKDATRRTQ”, the protein production entry was “failed”. For “AWQAAVASNEPFGEAQLAQRIRRYLPEQGQLFVGNSLVVRLIDALAQLPAGYPVYSNRGASGIDGLIATAAGVQRASARPTLAIVGDLSALYDLNSLALLRQASAPLVLIVVNNNGGQIFSMLPTPQDERRQFYLMPQDVDFSHAAVMFGLAYHRPDDWPSLDEALAGAWRRAGATVIELAVNETDGAQTLQQLLAQVSRL”, the protein production result is listed as “failed”. With “MSLNERILLVDDDYSLLNTLKRNLSFDFEVTTCESGPEALACIKKSDPFSVIMVDMRMPGMEGTEVIQKARLISPNSVYLMLTGNQDLTTAMEAVNEGQVFRFLNKPCQMSDIKAAINAGIKQYDLVTEGHHHHHH”, the protein production entry is listed as “not failed”.

“MDNLFYYMIIQNDRIQPIIVRQPQTVIIHSQPKLPITLDLPPQNIILKNEDPQPIIVRQSNPNIIIEKSQNDFYNHPNFHIGLHDKVNSMSDINNTNIKEQPIKDNMIEDMQNINNADTQFYYNNQNVINENNVLPTHYSYLNNGVFNKEHNYDPYNFTLYSNK”: the protein production entry was “failed”. For the sequence “MNAYLSMNSDWRASMTQTVLVLGASGRFGRNAAEAFGRAGWTVRQFDRKRDDLDAAARGADVIVNAWNPPYPDWAATVPGLHARVIKTAQATGATVIIPGNVYVFGADTPAPWGPDSPHAATNPLGRIRIDMEAAYRASGVRTILLRAGDFLDTCASGNWFDQVMIKRLDKGRFTYPGNPDIPHAWAYLPDLARATVTLSERRETLPVFCDLTYPGYTMTGRQIATGLEQVTGRRVALKRMNWLPLHLARPVWSLAGSLLEMRYLWNTPHSLDGAAFAKVLPEFVQTPFEQALASAIPARLLAAQVHPDQAVAAGL”, the protein production result is reported as “failed”. Turning to “MELKNKKLSLWEAVSMAVGVMIGASIFSIFGVGAKIAGRNLPETFILSGIYALLVAYSYTKLGAKIVSNAGPIAFIHKAIGDNIITGALSILLWMSYVISIALFAKGFAGYFLPLINAPINTFNIAITEIGIVAFFTALNFFGSKAVGRAEFFIVLVKLLILGLFIFAGLITIHPSYVIPDLAPSAVSGMIFASAIFFLSYMGFGVITNASEHIENPKKNVPRAIFISILIVMFVYVGVAISAIGNLPIDELIKASENALAVAAKPFLGNLGFLLISIGALFSISSAMNATIYGGANVAYSLAKDGELPEFFERKVWFKSTEGLYITSALGVLFALLFNMEGVASITSAVFMVIYLFVILSHYILIDEVGGRKEIVIFSFIVVLGVFLLLLYYQWITNRFVFYGIIATFIGVLIFEIIYRKVTKRTFSNNMYVKS”, the protein production entry is “not failed”. Take “MDGDFRTSFVREPAGLRPYPALVLNADYRPLSYYPLSLWPWQEAIKAAFLDRVSIVAEYDQVVRSQRAALRIPSVVVLKEFVSPQKRVAFTRFNLFLRDEFRCQYCGAKGDLTFDHVVPRARGGVTSWQNVVAACSPCNLHKGSKTLKQAGMRLARIPREPTPAEMQRHGQRFPPNHLHDSWLDYLYWDAELEALEHHHHHH”: the protein production result is “failed”. The result for “MANKNFSLTVYDSEYMETNNKIYQENMEKKIRTISEFPDKVLLKILSLLPSKDVVATGVLSKRWRSLWKDVKTFRTSSVESLQLKINPSATNKDIQSLVNMAVARSMRELRIEMICKNFELPKSFYMFSQLETVILDKVSLMDPPPDVHLPCLKRLHLLSVNSLTNVMIFTIDVPTLRILSIDNTSGKSRPKGVHGFVINTPSLSVNVVFDNPYKFLAPLGSTQYLSLCSVTSHTTYRPAVFSFIFLDHLELCLCSAEQWNLLTRILNYAPRLRVLQLKLYHKHCVKDTKNLMGNQPDLIPKSLSSHLEILEWRQYNDTAQEREAAKYILANASGLRKATFYTESTEKHGMLKEVRMCGQRFKNMSACVK” reads “failed”; that for “MSKSEEKQELPLETSPYTKYEDIEDYKKNAYGTSGHQDVKPGHGGGTTDAPTPSGDAAPSAIDSANQKAKK”, “failed”. With “MSPKKDKFLDNAQKFLVKGQLDRALREYEQAVAIDPKDVRVRQKYAELLVRANRKDDALKEFEVIGKYYSDNGFYLKAIAVYKQIQKLTPSNLDISLTLGALNEKQGLIGNALAEYKFVFDHYERSNRFIDAVAVLEKMLAADRDNLNIRLKLAETRHRANLIDDAYHDYTELARELRSKGDNAAYTRVCERIASMFPDRKDFLLTVAENQIRDGKAAAAIPVLKQIVGDDRWNPKALYLLADAARAVADPAMVKGAYGQIIKRFPGEITAIKGFLFSLKAEGNVDEAVRVLRHVEPELIKAEPETLEQFYLSFRDLSPDHPGIAEGLLRIRGTAGVDEPEPMVEQVPDVAEPEKEADFAPQPEESDSVMEEPPAEDIPWEEEIDISFDSDGASVEGNRPTEGEASESPSFLHDEGMSLVEADESPIRFDDSSEEETREVEVELADFSSITPDWLDGVPDSAMDKPGETTFSEGLSLDFTDGELEDVIPPPPLDSPMPKPDKYGLDGLFSAFKKGVGEQLTQDDTESHYSLGIAYKEMGLFDDAIVEFQSAARDPRRLADCITLQGICSREKGDPAKAEEYFRSGLAVEGLNREERLCLTYELALLYEMIGDRTRALAGYREALALNPGFRDVAQKIAILRSDGDTHDAADLELLDLDEVEEGAG”, the protein production result is “failed”. Consider “MKLEERIKSKITILVFIAILMYFLLNYGNDVRGIINNIYSIFFPFILGGCIAFILNIPVTFFSKKLLNCKIKFIGKVVRKYNISISIVASCILIIGIFALISAIIIPNIIQTIKILPNAFDNSITAFQKFVNENSWMSKNVTSLVNNLNIDWNGILNKVKITIITGASSVFMSTLGAATTFASTAIEFVLSFIFSIYILAQKNKLGTQVKMVLYAFFKKQKVDSALEVLKLTSNTFSNFITGQCTVSIILGVMFFIVMTILKLPYAIEVSIIIAFFSVIPMIGSIIGFVLSVLLLLIFNPIKAGVFVFVFLAIKQVEDNFIYPKIVGNSVGLPSILVLVAITLGGKVLGVPGMIMSIPLFSVAYVLLRKEVYTRLEKKALKVE”, for which the protein production entry is listed as “failed”.
